This is an account of results in patent US20030077290A1.

In the assay the target is serum IgE from grass pollen allergic patients (171 sera). The experiment in a line: ELISA competition; sera preabsorbed with rPhl p 6, IgE binding to rPhl p 5.

A value given as a limit tells only on which side of the number the result lay.

B1: recombinant Phl p 6 (protein)
chain: GKATTEEQKLIEDINASFRAAMATTANVPPADKYKTFEAAFTVSSKRNLADAVSKAPQLVPKLDEVYNAAYNAADHAAPEDKYEAFVLHFSEALHIIAGTPEVHAVKPGA
The molecule B1 displayed a percent of Phl p 5-specific IgE preabsorbed of less than 20%.
